# Results taken from patent US20220396632A1 (VERSEAU THERAPEUTICS, published 2022).
# Non-standard residues stand in square brackets, D forms with d. No end group written: not given here. *: point of attachment. Biotin = O=C1N[C@H]2[C@H](CS[C@H]2CCCCC(=O)*)N1; sY = N[C@@H](Cc1ccc(OS(=O)(=O)O)cc1)C(=O)O
# T1: Recombinant human PSGL-1(ECD)-hFc1 (R&D Systems, Cat. 3345-PS) (human, UniProt Q14242 42-305)
# T1 construct: Bought; Gln42-Val295 counted on AAC50061; also called PSGL-1-Fc; PSGL-1-hFc1 chimera; not shown: human IgG1 Fc, Pro100-Lys330
# T1 sequence: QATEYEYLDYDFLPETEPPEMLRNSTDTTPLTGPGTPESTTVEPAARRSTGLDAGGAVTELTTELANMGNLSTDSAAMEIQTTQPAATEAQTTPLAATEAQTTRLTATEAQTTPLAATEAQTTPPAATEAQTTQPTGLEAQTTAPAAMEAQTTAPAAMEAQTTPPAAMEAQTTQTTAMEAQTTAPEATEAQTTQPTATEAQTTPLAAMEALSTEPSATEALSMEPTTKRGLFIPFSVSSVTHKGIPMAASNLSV
# T2: Sulfotyrosine CCR2b biotin peptide (human)
# T2 construct: also called CCR2b peptide
# T2 peptide: TTFFD[sY]D[sY]GAPSHGGK(Biotin)
# T3: Sulfotyr fibrinogen γ peptide (not fully specified; Y8 and Y12 sulfated (SO3); C-terminal biotin)
# T3 construct: also called Fibrinogen gamma peptide; human sulfotyrosinylated fibrinogen peptide
# T3 peptide: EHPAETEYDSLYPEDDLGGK
# T4: Human fibrinogen protein (ThermoFisher, RP-43142) (human, UniProt P02671 20-629; P02675 31-491; P02679 27-453, limits assumed, natural sulfotyrosines)
# T4 construct: mature; Native dimer with 3 pairs of non-identical chains; also called gamma-fibrinogen; γ fibrinogen protein
# T4 sequence (looked up) 1: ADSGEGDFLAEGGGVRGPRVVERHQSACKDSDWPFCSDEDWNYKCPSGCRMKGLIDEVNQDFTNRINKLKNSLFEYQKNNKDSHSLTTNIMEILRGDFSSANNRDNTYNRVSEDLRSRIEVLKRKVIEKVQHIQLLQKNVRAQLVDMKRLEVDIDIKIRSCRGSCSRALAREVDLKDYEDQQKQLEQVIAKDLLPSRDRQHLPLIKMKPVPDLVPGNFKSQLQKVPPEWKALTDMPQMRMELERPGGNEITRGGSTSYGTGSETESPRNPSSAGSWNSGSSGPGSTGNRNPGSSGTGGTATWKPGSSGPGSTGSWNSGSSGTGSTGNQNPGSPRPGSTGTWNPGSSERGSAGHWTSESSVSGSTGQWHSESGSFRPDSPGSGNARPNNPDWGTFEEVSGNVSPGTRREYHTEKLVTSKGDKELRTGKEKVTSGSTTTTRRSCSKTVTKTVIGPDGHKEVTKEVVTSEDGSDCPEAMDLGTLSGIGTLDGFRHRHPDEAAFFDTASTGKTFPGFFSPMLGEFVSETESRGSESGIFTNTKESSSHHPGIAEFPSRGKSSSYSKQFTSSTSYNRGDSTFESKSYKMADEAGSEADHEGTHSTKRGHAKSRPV
# T4 sequence (looked up) 2: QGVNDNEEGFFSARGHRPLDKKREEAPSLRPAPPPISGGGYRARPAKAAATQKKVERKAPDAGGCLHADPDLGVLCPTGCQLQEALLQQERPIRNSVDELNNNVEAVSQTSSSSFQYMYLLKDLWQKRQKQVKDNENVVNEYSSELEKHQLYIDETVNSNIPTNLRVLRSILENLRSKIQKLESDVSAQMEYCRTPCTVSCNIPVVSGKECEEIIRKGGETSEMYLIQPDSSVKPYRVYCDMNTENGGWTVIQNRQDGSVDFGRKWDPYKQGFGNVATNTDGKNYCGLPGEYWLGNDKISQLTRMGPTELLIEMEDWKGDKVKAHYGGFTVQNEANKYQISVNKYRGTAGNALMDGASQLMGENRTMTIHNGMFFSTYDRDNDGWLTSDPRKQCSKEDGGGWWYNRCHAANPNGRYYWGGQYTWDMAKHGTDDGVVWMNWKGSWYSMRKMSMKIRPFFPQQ
# T4 sequence (looked up) 3: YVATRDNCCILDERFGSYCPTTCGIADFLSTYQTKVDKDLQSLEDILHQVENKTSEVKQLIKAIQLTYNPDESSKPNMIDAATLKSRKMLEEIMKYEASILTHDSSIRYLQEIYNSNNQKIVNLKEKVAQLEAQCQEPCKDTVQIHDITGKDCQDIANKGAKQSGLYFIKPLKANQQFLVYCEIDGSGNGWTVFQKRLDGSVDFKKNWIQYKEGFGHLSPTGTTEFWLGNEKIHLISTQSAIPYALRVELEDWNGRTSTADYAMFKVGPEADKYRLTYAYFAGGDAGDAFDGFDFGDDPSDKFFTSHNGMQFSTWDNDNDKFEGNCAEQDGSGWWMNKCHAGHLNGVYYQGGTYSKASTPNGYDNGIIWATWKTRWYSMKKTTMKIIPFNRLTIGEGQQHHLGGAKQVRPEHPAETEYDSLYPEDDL
# T5: SulfoTyr C4 peptide (not fully specified; Y4, Y7 and Y9 sulfated (SO3); C-terminal biotin)
# T5 construct: also called C4 alpha chain peptide; human sulfotyrosinylated C4 peptide
# T5 peptide: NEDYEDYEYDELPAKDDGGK
# B1: 20I15 (antibody, V domains shown)
# VH: EVKLVESGGGLVQPGGSLSLSCAASGFTFTDYYMSWVRQPPGKALEWLGFIRNKANGYTTEYSASVKGRFTISRDNSQSILYLQMNALRAEDSATYYCARTYLRRGYFDVWGTGTTVTVSS
# VL: DIVLTQSPASLAVSLGQRATISCRASKSVSTSGYSYMHWFQQKPGQPPKLLIYLASNLESGVPARFSGSGSGTDFTLNIHPVEEEDAATYYCQHSRELPLTFGAGTKLELK
# notes: From mouse immunisation; only variable domains given; also called 20115
# B2: 03D07 (antibody, IgG4, V domains shown)
# VH: EVKLLESGGGLVQPGGSLRLSCAASGFTFSSYALSWVRQAPGKGLEWVSAISGSGGNTYYADSVKGRFTISRDNSKNTLYLQMNSLRAEDTAVYYCAKVVGATNYWGQGTLVTVSS
# VL: DIVMTQTPLSLPVTLGQPASISCRSSQSLVYSDGHTYLSWFHQRPGQSPRRLIYKVSIRDSGVPDRFSGSGSGTDFTLKISRVEAEDVGVYYCMQRLQIPLTFGGGTKVEIK
# B3: 16L15 (antibody, V domains shown)
# VH: DVKLVESGGGLVKLGGSLKLSCAASGFTFSSYYMSWVRQTPEKRLEWVATISNGGGSTYYPDSVKDRFTISRDNAKNTLYLQMSSLNSEDTAVYYCAKPLYYSNPWFAYWGQGTLVTVSA
# VL: DVLLTQTPLSLPVSLGDQASISCRSSQSIVHSNGNTYLEWYLQKPGQSPKLLIYKVSNRFSGVPDRFSGSGSGTDFTLKISRVEAEDLGVYYCFQGSHVPRTFGGGTKLEIK
# notes: From mouse immunisation; only variable domains given
# B4: 10F01 (antibody, IgG4, V domains shown)
# VH: EVQLVQSGGGLVQPGGSLRLSCAASGFTFSSYAMSWVRQAPGKGLEWVSALRGGDGGTYHADSVKGRFTISGDSSKNTLYLQMNSLRAEDTAVYYCARRMVGAAYAFDIWGQGTMVTVSS
# VL: LPVLTQPHSVSESPGKTVTISCTRSSGSIADNFVQWYRQRPGSAPTTVIYEGDQRPSGVPGRFSGSIDSSSNSASLTISGLQTDDEADYYCQSFDSYNRRTHVVFGGGTKLTVL
# B5: 19I01 (antibody, V domains shown)
# VH: EVQLVESGGGLVKPGGSRKLSCAASGFTFSDYGMHWVRQAPEKGLEWVAYISSGSSTIYYADTVKGRFTISRDNAKNTLFLQMTSLRSEDTAMYYCARGVDGYWGQGTTLTVSS
# VL: DVVMTQTPLSLPVSLGDQASISCRSSQSLVHSNGNTYLHWYLQKPGQSPKFLIYKVSNRFSGVPDRFSGSGSGTDFTLKISRVEAEDLGVYFCSQTTHVPLTFGAGTKLELK
# notes: From mouse immunisation; only variable domains given; also called 19101
# B6: 2E12 (antibody, V domains shown)
# VH: QVQLQQSGAELARPGASVKLSCKASGYTFTNYGLNWVKQRTGQGLEWIGEIYPRSGNTYYNEKFKGKATLTADKSSSTAYMQLSSLTSEDSAVYFCATEGAYWGQGTLVTVSA
# VL: DIVMTQTPLTLSVTIGQPASISCKSSQSLLHGNGKTYLNWLLQRPGQSPKLLIYLVSKLESGIPDRFSGSGSGTDFTLEISRVEAEDLGIYYCLQSTHFPRTFGGGTKLEIK
# notes: Mouse hybridoma mAb; only variable domains given
# Target: T1, Recombinant human PSGL-1(ECD)-hFc1 (R&D …)
# Test: blocking ELISA vs VISTA-Fc, pH 6.0
Binder,% max Block [%],IC50 [nM]
B1,85,30
B2,100,8
B3,100,6
B4,100,8
B5,100,8
B6,0,–

# Target: T2, Sulfotyrosine CCR2b biotin peptide
# Test: ELISA, 50 nM mAb
# Protocol: (§1) Recombinant PSGL-1-hFc1 chimera protein consisting of PSGL-1's extracellular domain (ECD) served as a positive control. […] Primary antibody was added (25 ul per well) in duplicate at 50 nM in assay buffer (blocking buffer containing 0.05% Tween®20) into test and control (just blocked) wells and the plate incubated for 45 min at 37° C.
Binder,binding normalized to PSGL-1,binding result
B1,0.21,–
B2,0.16,–
B3,0.03,–
B4,0.03,–
B5,0.02,no binding (tested: 50 nM)
B6,0.03,–

# Target: T3, Sulfotyr fibrinogen γ peptide
# Test: ELISA, 50 nM mAb
# Protocol: as §1
Binder,binding normalized to PSGL-1,binding result
B1,0.37,–
B2,0.49,–
B3,0.11,–
B4,0.06,–
B5,-0.01,no binding (tested: 50 nM)
B6,0.76,–

# Target: T4, Human fibrinogen protein (ThermoFisher, …)
# Test: ELISA, 50 nM mAb
# Protocol: as §1
Binder,binding normalized to PSGL-1,binding result
B1,0.06,–
B2,0.06,–
B3,–,no binding (tested: 50 nM)
B4,0.01,no binding (tested: 50 nM)
B5,-0.01,no binding (tested: 50 nM)
B6,1.3,–

# Target: T5, SulfoTyr C4 peptide
# Test: ELISA, 50 nM mAb
# Protocol: as §1
Binder,binding normalized to PSGL-1,binding result
B1,0.34,–
B2,0.71,–
B3,0.01,no binding (tested: 50 nM)
B4,0.17,–
B5,-0.01,no binding (tested: 50 nM)
B6,0.03,–

# Target: T6, Human complement C4 protein (Millipore Sigma, Cat. 204886) (human, UniProt P0C0L4 20-675; P0C0L4 680-1446; P0C0L4 1454-1744, limits assumed, natural sulfotyrosines)
# T6 construct: mature
# T6 sequence (P0C0L4 20-675 limits assumed, form in doubt, chain 1 of 3): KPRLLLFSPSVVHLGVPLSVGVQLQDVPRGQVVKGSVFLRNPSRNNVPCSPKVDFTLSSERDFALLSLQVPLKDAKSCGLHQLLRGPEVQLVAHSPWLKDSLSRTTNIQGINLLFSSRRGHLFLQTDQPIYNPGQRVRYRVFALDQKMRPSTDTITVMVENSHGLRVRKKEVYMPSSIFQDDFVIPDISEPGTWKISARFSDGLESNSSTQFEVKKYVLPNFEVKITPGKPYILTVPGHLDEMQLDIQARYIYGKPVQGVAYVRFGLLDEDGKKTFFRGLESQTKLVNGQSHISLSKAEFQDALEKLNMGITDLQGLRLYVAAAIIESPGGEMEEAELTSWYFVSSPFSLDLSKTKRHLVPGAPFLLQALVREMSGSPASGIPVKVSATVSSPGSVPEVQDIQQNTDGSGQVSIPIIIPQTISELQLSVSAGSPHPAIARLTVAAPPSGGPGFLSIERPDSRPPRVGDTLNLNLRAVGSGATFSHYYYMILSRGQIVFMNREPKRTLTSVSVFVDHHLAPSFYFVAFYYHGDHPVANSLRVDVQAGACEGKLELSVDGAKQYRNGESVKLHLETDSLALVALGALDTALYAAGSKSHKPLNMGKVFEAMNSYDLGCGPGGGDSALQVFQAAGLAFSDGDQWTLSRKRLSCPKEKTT
# T6 sequence (P0C0L4 680-1446 limits assumed, form in doubt, chain 2 of 3): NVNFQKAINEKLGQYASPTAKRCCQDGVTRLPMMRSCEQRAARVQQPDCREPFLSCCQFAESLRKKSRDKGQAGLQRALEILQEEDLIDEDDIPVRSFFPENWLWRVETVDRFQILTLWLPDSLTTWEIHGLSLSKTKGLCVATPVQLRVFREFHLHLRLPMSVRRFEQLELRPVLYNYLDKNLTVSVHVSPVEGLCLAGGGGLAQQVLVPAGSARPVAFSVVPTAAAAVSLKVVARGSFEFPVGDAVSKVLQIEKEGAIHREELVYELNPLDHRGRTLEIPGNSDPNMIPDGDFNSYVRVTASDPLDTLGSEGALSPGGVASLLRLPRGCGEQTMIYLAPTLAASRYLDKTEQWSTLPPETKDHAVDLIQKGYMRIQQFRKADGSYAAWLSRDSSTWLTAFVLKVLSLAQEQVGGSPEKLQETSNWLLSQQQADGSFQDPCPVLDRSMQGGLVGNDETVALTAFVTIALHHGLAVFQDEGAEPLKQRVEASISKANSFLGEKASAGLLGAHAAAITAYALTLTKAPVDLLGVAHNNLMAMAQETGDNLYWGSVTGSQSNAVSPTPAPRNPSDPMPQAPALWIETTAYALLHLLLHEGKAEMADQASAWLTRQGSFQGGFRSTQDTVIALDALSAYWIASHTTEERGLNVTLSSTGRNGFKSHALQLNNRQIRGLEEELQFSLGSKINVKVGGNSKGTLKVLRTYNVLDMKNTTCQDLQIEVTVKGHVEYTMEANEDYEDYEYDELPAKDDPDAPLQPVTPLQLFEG
# T6 sequence (P0C0L4 1454-1744 limits assumed, form in doubt, chain 3 of 3): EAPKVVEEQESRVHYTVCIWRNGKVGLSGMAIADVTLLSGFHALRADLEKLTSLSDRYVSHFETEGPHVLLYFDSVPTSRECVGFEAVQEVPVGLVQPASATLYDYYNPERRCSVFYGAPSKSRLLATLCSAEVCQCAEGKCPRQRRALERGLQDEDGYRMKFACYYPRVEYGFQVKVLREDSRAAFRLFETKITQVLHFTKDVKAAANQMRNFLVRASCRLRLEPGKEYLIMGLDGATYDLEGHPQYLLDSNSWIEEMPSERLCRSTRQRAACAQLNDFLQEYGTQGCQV
# Test: ELISA, 50 nM mAb
# Protocol: as §1
row,Binder,binding normalized to PSGL-1
1,B1,0.09
2,B2,0.53
3,B3,0.02
4,B4,0.06
5,B5,-0.01
6,B6,0.1

# Target: T1, Recombinant human PSGL-1(ECD)-hFc1 (R&D …)
# Test: blocking ELISA vs P-selectin-Fc
# Summary of the method: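 In this competition format, antibodies were titrated in duplicate on PSGL-1-Fc-coated wells (2.5 ug/mL, pH 7.4) for 45 min at 37° C. IC50 values came from sigmoidal fits.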
Binder,% max Block [%],IC50 [nM]
B1,52,100
B2,100,5
B3,100,10
B4,100,4
B5,100,4
B6,0,–
